From publication PMC12860359, “Selection and optimization strategy for Rap1-targeting single-domain antibodies as platelet activation markers” (Research and Practice in Thrombosis and Haemostasis, 2025)
Blank lines part the entries; values can stand above or below the binder they belong to.

How the values were obtained:
LexA-Rap1B G12V = target: T1, LexA-Rap1B G12V (Homo sapiens, G12V)
T1 chain: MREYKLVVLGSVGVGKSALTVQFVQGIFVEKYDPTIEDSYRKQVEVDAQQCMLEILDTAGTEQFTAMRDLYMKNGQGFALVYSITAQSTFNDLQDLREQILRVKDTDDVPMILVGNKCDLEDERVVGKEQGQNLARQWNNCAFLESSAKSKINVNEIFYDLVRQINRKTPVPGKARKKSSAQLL

VHH-hFcS A47 [1] = target: T2, VHH-hFcS A47; test: BLI; OCTET R2; VHH-hFcS (2.5 μg/mL) on protein A biosensors; Rap1B loaded with GTPγS in solution at 0.04, 0.13, 0.4, 1.2 μM; 20 mM Tris-HCl pH 7.4, 0.1% BSA, 200 mM NaCl, 2 mM EDTA, 10 mM MgCl2; 25 °C; 1:1 fit; settings: both partners purified
T2 construct: VHH A47; Bivalent VHH-Fc; also called VHH-FcS A47; VHH-Fc silent A47; source: HEK293, transfected (pHLSec), serum-free medium, purified

VHH-hFcS B89 [2] = target: T3, VHH-hFcS B89; test: as above; settings: both partners purified
T3 construct: as the VHH of m19 (A47); Bivalent VHH-Fc; Some immunoprecipitations name only 'VHH-Fc B89' without the kind of Fc; also called VHH-Fc B89; source: HEK293, transfected (pHLSec), serum-free medium, purified

VHH-hFcS A47 [3] = target: T2, VHH-hFcS A47; test: ELISA; VHH-FcS (1.25 μg/mL) captured on goat antihuman Fc (Fab')2-coated plates; human platelet lysates (6 × 10^6 platelets/well) loaded with GTPγS, or PRP before and after stimulation with TRAP or ADP; detection with anti-Rap1 monoclonal (Abcam) or polyclonal (Merck) antibody; settings: one partner purified
VHH-hFcS B14 = target: T4, VHH-hFcS B14; test: as above; settings: one partner purified
T4 construct: as the VHH of m19 (A47); Bivalent VHH-Fc; also called VHH-Fc B14; source: HEK293, transfected (pHLSec), serum-free medium, purified

[4] = target: T5, VHH-Fc A64 (immunoprecipitation); test: co-IP; immunoprecipitation: VHH-Fc (1-2 μg) on Protein A/G magnetic beads incubated overnight at 4 °C with human platelet lysates (~200 μg protein) loaded with GTPγS or from platelets stimulated with TRAP or ADP; Rap1 western blot; settings: one partner purified
T5 construct: VHH A64; source: HEK293, transfected; 2 μg used

VHH-hFcS B89 [5] = target: T3, VHH-hFcS B89; test: as above; settings: one partner purified

B1: A141 (VHH)
VHH: EVQLQASGGGFVQPGGSLRLSCAASGATSKLSAMGWFRQAPGKEREFVSAISAQNDFWTYYADSVKGRFTISRDNSKNTVYLQMNSLRAEDTATYYCAHHFPSTAKSYWGQGTQVTVSS
binding result (LexA-Rap1B G12V): binds

B2: MBP-HA Rap1B WT (natural protein, human, UniProt P61224-1 1-184, looked up)
chain: MREYKLVVLGSGGVGKSALTVQFVQGIFVEKYDPTIEDSYRKQVEVDAQQCMLEILDTAGTEQFTAMRDLYMKNGQGFALVYSITAQSTFNDLQDLREQILRVKDTDDVPMILVGNKCDLEDERVVGKEQGQNLARQWNNCAFLESSAKSKINVNEIFYDLVRQINRKTPVPGKARKKSSAQLL
notes: loaded with GTPγS or GDP before the assays; this is the only recombinant wild-type Rap1B it describes; also called human Rap1B; recombinant Rap1B; source: E. coli BL21DE3, purified (amylose resin); not shown: MBP, N-terminal, kept; HA, N-terminal, kept
Kd (VHH-hFcS A47 [1]): 17.2 nM
Kd (VHH-hFcS B89 [2]): 4.4 nM
koff (VHH-hFcS B89 [2]): 0.000513 s⁻¹
kon (VHH-hFcS B89 [2]): 166000 M⁻¹ s⁻¹

Results, then the binder that gave them:

binding result (LexA-Rap1B G12V): binds
B3: A145 (VHH)
VHH: EVQLQASGGGFVQPGGSLRLSCAASGATWKHEIMGWFRQAPGKEREFVSAISSQPGLWDYYADSVKGRFTISRDNSKNTVYLQMNSLRAEDTATYYCATPGQRMIEYWGQGTQVTVSS

binding result (VHH-hFcS A47 [3]): binds
binding result (VHH-hFcS B14): binds
binding result [4]: binds
binding result (VHH-hFcS B89 [5]): binds
B4: Rap1 of human platelets (natural protein, human (endogenous in platelets), UniProt P61224 1-184, looked up)
chain: MREYKLVVLGSGGVGKSALTVQFVQGIFVEKYDPTIEDSYRKQVEVDAQQCMLEILDTAGTEQFTAMRDLYMKNGQGFALVYSITAQSTFNDLQDLREQILRVKDTDDVPMILVGNKCDLEDERVVGKEQGQNLARQWNNCAFLESSAKSKINVNEIFYDLVRQINRKTPVPGKARKKSSC
notes: also called active Rap1; source: endogenous, human platelet lysate
